# According to publication doi:10.1101/2020.01.13.904318 (bioRxiv, 2020):
# B1: purified FrlR UTRA-domain (domain or fragment)
# chain: QKVENALLTVSGFTDFGVSQGKATKEKVIEQERVSAAPFCEKLNIPGNSEVFHLCRVMYLDKEPLFIDSSWIPLSRYPDFDEIYVEGSSTYQLFQERFDTRVVSDKKTIDIFAATRPQAKWLKCELGEPLFRISKIAFDQNDKPVHVSELFCRANRITLTIDNKRH
# Molecular target: the molecule itself
# Test: SEC
protein,measurement,value
B1,stoichiometry N,2
